Experimental data: US10919943B2, “Mutant proteins enabling agrochemical control of plant gene expression” (The Regents of the University of California, priority 2016, dated 2021)

Test system: HAB1
Test: Yeast two hybrid of pBD-PYR1 site saturation mutants with pACT-HAB1 on 10 μM ABA, β-galactosidase staining
Type: cell-based, Arabidopsis
Parameters: key: x: Mutations in PYR1 that disrupt ABA-induced binding to PYR1 to HAB1
Details: S. cerevisiae Y190, 10 μM ABA; dead = lack of visible staining in comparison to wild type control
Excerpt: To systematically identify mutations in PYR1 that disrupt its binding to HAB1, we utilized a collection of saturating mutations that contain all possible single amino acid substitutions in 24 conserved interface residues involved in binding HAB1, which was previously constructed for the purpose of engineering constitutively active ABA receptor variants (Mosquna et al., 2011). The interface residues previously mutagenized in this collection are the following: H60, F61, I62, K63, I84, S85, G86, L87, P88, A89, H115, R116, L117, P148, G150, N151, D154, D155, T156, M158, F159, T162, L166, K170. This set was made by mutagenizing a pBD-PYR1 template that encodes a GAL4-DNA binding domain fusion to PYR1, which can be used to assess receptor-HAB1 binding in S. cerevisiae strains co-transformed with pACT-HAB1, which expresses a GAL4 activation domain fusion to HAB1. Mutant pBD-PYR1 clones from the collection are maintained in S. cerevisiae strain Y190 co-transformed with pACT-HAB1. The test strains were spotted onto agar plates containing synthetic dextrose dropout media lacking leucine and tryptophan [SD (-Leu, -Trp)] medium supplemented with 10 μM ABA. After incubating the test plates at 30° C. for two days, colonies were chloroform lysed and stained to reveal […] expression levels and “dead” mutants were defined by lack of visible staining in comparison to a wild type control. This effort defined 237 mutations that disrupt ABA-induced binding of PYR1 to HAB1 (Table 1). Premade yeast drop out supplements (Clontech) were utilized in this and other examples for media preparation, amino acids and other standard chemicals were purchased from Sigma-Aldrich (USA). The naturally occurring (+)-ABA isomer was used in all experiments and purchased from Biosynth Ag (Switzerland).

Molecule	Mutations in PYR1 that disrupt ABA-induced binding to PYR1 to HAB1
L87G: PYR1 mutant (protein, UniProt O49686 1-191, looked up, variant L87G) Abscisic acid receptor PYR1: MPSELTPEERSELKNSIAEFHTYQLDPGSCSSLHAQRIHAPPELVWSIVRRFDKPQTYKHFIKSCSVEQNFEMRVGCTRDVIVISGGPANTSTERLDILDDERRVTGFSIIGGEHRLTNYKSVTTVHRFEKENRIWTVVLESYVVDMPEGNSEDDTRMFADTVVKLNLQKLATVAEAMARNSGDGSGSQVT	x
L87Y: PYR1 mutant (protein, UniProt O49686 1-191, looked up, variant L87Y) Abscisic acid receptor PYR1: MPSELTPEERSELKNSIAEFHTYQLDPGSCSSLHAQRIHAPPELVWSIVRRFDKPQTYKHFIKSCSVEQNFEMRVGCTRDVIVISGYPANTSTERLDILDDERRVTGFSIIGGEHRLTNYKSVTTVHRFEKENRIWTVVLESYVVDMPEGNSEDDTRMFADTVVKLNLQKLATVAEAMARNSGDGSGSQVT	x
L87Q: PYR1 mutant (protein, UniProt O49686 1-191, looked up, variant L87Q) Abscisic acid receptor PYR1: MPSELTPEERSELKNSIAEFHTYQLDPGSCSSLHAQRIHAPPELVWSIVRRFDKPQTYKHFIKSCSVEQNFEMRVGCTRDVIVISGQPANTSTERLDILDDERRVTGFSIIGGEHRLTNYKSVTTVHRFEKENRIWTVVLESYVVDMPEGNSEDDTRMFADTVVKLNLQKLATVAEAMARNSGDGSGSQVT	x
L87E: PYR1 mutant (protein, UniProt O49686 1-191, looked up, variant L87E) Abscisic acid receptor PYR1: MPSELTPEERSELKNSIAEFHTYQLDPGSCSSLHAQRIHAPPELVWSIVRRFDKPQTYKHFIKSCSVEQNFEMRVGCTRDVIVISGEPANTSTERLDILDDERRVTGFSIIGGEHRLTNYKSVTTVHRFEKENRIWTVVLESYVVDMPEGNSEDDTRMFADTVVKLNLQKLATVAEAMARNSGDGSGSQVT	x
L87H: PYR1 mutant (protein, UniProt O49686 1-191, looked up, variant L87H) Abscisic acid receptor PYR1: MPSELTPEERSELKNSIAEFHTYQLDPGSCSSLHAQRIHAPPELVWSIVRRFDKPQTYKHFIKSCSVEQNFEMRVGCTRDVIVISGHPANTSTERLDILDDERRVTGFSIIGGEHRLTNYKSVTTVHRFEKENRIWTVVLESYVVDMPEGNSEDDTRMFADTVVKLNLQKLATVAEAMARNSGDGSGSQVT	x
L87R: PYR1 mutant (protein, UniProt O49686 1-191, looked up, variant L87R) Abscisic acid receptor PYR1: MPSELTPEERSELKNSIAEFHTYQLDPGSCSSLHAQRIHAPPELVWSIVRRFDKPQTYKHFIKSCSVEQNFEMRVGCTRDVIVISGRPANTSTERLDILDDERRVTGFSIIGGEHRLTNYKSVTTVHRFEKENRIWTVVLESYVVDMPEGNSEDDTRMFADTVVKLNLQKLATVAEAMARNSGDGSGSQVT	x
P88L: PYR1 mutant (protein, UniProt O49686 1-191, looked up, variant P88L) Abscisic acid receptor PYR1: MPSELTPEERSELKNSIAEFHTYQLDPGSCSSLHAQRIHAPPELVWSIVRRFDKPQTYKHFIKSCSVEQNFEMRVGCTRDVIVISGLLANTSTERLDILDDERRVTGFSIIGGEHRLTNYKSVTTVHRFEKENRIWTVVLESYVVDMPEGNSEDDTRMFADTVVKLNLQKLATVAEAMARNSGDGSGSQVT	x
L87C: PYR1 mutant (protein, UniProt O49686 1-191, looked up, variant L87C) Abscisic acid receptor PYR1: MPSELTPEERSELKNSIAEFHTYQLDPGSCSSLHAQRIHAPPELVWSIVRRFDKPQTYKHFIKSCSVEQNFEMRVGCTRDVIVISGCPANTSTERLDILDDERRVTGFSIIGGEHRLTNYKSVTTVHRFEKENRIWTVVLESYVVDMPEGNSEDDTRMFADTVVKLNLQKLATVAEAMARNSGDGSGSQVT	x
P88R: PYR1 mutant (protein, UniProt O49686 1-191, looked up, variant P88R) Abscisic acid receptor PYR1: MPSELTPEERSELKNSIAEFHTYQLDPGSCSSLHAQRIHAPPELVWSIVRRFDKPQTYKHFIKSCSVEQNFEMRVGCTRDVIVISGLRANTSTERLDILDDERRVTGFSIIGGEHRLTNYKSVTTVHRFEKENRIWTVVLESYVVDMPEGNSEDDTRMFADTVVKLNLQKLATVAEAMARNSGDGSGSQVT	x
L87W: PYR1 mutant (protein, UniProt O49686 1-191, looked up, variant L87W) Abscisic acid receptor PYR1: MPSELTPEERSELKNSIAEFHTYQLDPGSCSSLHAQRIHAPPELVWSIVRRFDKPQTYKHFIKSCSVEQNFEMRVGCTRDVIVISGWPANTSTERLDILDDERRVTGFSIIGGEHRLTNYKSVTTVHRFEKENRIWTVVLESYVVDMPEGNSEDDTRMFADTVVKLNLQKLATVAEAMARNSGDGSGSQVT	x
P88M: PYR1 mutant (protein, UniProt O49686 1-191, looked up, variant P88M) Abscisic acid receptor PYR1: MPSELTPEERSELKNSIAEFHTYQLDPGSCSSLHAQRIHAPPELVWSIVRRFDKPQTYKHFIKSCSVEQNFEMRVGCTRDVIVISGLMANTSTERLDILDDERRVTGFSIIGGEHRLTNYKSVTTVHRFEKENRIWTVVLESYVVDMPEGNSEDDTRMFADTVVKLNLQKLATVAEAMARNSGDGSGSQVT	x
L87K: PYR1 mutant (protein, UniProt O49686 1-191, looked up, variant L87K) Abscisic acid receptor PYR1: MPSELTPEERSELKNSIAEFHTYQLDPGSCSSLHAQRIHAPPELVWSIVRRFDKPQTYKHFIKSCSVEQNFEMRVGCTRDVIVISGKPANTSTERLDILDDERRVTGFSIIGGEHRLTNYKSVTTVHRFEKENRIWTVVLESYVVDMPEGNSEDDTRMFADTVVKLNLQKLATVAEAMARNSGDGSGSQVT	x

Other lines, results leading:

Mutations in PYR1 that disrupt ABA-induced binding to PYR1 to HAB1	Molecule
x	L87A: PYR1 mutant (protein, UniProt O49686 1-191, looked up, variant L87A) Abscisic acid receptor PYR1: MPSELTPEERSELKNSIAEFHTYQLDPGSCSSLHAQRIHAPPELVWSIVRRFDKPQTYKHFIKSCSVEQNFEMRVGCTRDVIVISGAPANTSTERLDILDDERRVTGFSIIGGEHRLTNYKSVTTVHRFEKENRIWTVVLESYVVDMPEGNSEDDTRMFADTVVKLNLQKLATVAEAMARNSGDGSGSQVT
x	L87S: PYR1 mutant (protein, UniProt O49686 1-191, looked up, variant L87S) Abscisic acid receptor PYR1: MPSELTPEERSELKNSIAEFHTYQLDPGSCSSLHAQRIHAPPELVWSIVRRFDKPQTYKHFIKSCSVEQNFEMRVGCTRDVIVISGSPANTSTERLDILDDERRVTGFSIIGGEHRLTNYKSVTTVHRFEKENRIWTVVLESYVVDMPEGNSEDDTRMFADTVVKLNLQKLATVAEAMARNSGDGSGSQVT
x	L87D: PYR1 mutant (protein, UniProt O49686 1-191, looked up, variant L87D) Abscisic acid receptor PYR1: MPSELTPEERSELKNSIAEFHTYQLDPGSCSSLHAQRIHAPPELVWSIVRRFDKPQTYKHFIKSCSVEQNFEMRVGCTRDVIVISGDPANTSTERLDILDDERRVTGFSIIGGEHRLTNYKSVTTVHRFEKENRIWTVVLESYVVDMPEGNSEDDTRMFADTVVKLNLQKLATVAEAMARNSGDGSGSQVT
x	L87N: PYR1 mutant (protein, UniProt O49686 1-191, looked up, variant L87N) Abscisic acid receptor PYR1: MPSELTPEERSELKNSIAEFHTYQLDPGSCSSLHAQRIHAPPELVWSIVRRFDKPQTYKHFIKSCSVEQNFEMRVGCTRDVIVISGNPANTSTERLDILDDERRVTGFSIIGGEHRLTNYKSVTTVHRFEKENRIWTVVLESYVVDMPEGNSEDDTRMFADTVVKLNLQKLATVAEAMARNSGDGSGSQVT
x	L87T: PYR1 mutant (protein, UniProt O49686 1-191, looked up, variant L87T) Abscisic acid receptor PYR1: MPSELTPEERSELKNSIAEFHTYQLDPGSCSSLHAQRIHAPPELVWSIVRRFDKPQTYKHFIKSCSVEQNFEMRVGCTRDVIVISGTPANTSTERLDILDDERRVTGFSIIGGEHRLTNYKSVTTVHRFEKENRIWTVVLESYVVDMPEGNSEDDTRMFADTVVKLNLQKLATVAEAMARNSGDGSGSQVT
x	P88Q: PYR1 mutant (protein, UniProt O49686 1-191, looked up, variant P88Q) Abscisic acid receptor PYR1: MPSELTPEERSELKNSIAEFHTYQLDPGSCSSLHAQRIHAPPELVWSIVRRFDKPQTYKHFIKSCSVEQNFEMRVGCTRDVIVISGLQANTSTERLDILDDERRVTGFSIIGGEHRLTNYKSVTTVHRFEKENRIWTVVLESYVVDMPEGNSEDDTRMFADTVVKLNLQKLATVAEAMARNSGDGSGSQVT
x	P88N: PYR1 mutant (protein, UniProt O49686 1-191, looked up, variant P88N) Abscisic acid receptor PYR1: MPSELTPEERSELKNSIAEFHTYQLDPGSCSSLHAQRIHAPPELVWSIVRRFDKPQTYKHFIKSCSVEQNFEMRVGCTRDVIVISGLNANTSTERLDILDDERRVTGFSIIGGEHRLTNYKSVTTVHRFEKENRIWTVVLESYVVDMPEGNSEDDTRMFADTVVKLNLQKLATVAEAMARNSGDGSGSQVT
